According to article PMC8290593, “PTD-mediated delivery of α-globin chain into Κ-562 erythroleukemia cells and α-thalassemic (HBH) patients’ RBCs ex vivo in the frame of Protein Replacement Therapy” (Journal of Biological Research, 2021):

Target: the molecule itself
Test: SDS-PAGE and Western blot; recombinant protein extracts (bacterial inclusion bodies in 1 M L-Arg pH 8.0, and soluble proteins purified by Ni2+-NTA) on 15% SDS-PAGE, immunoblotted with anti-His.IgG

B1: 10xHis-Xa_(SITE)-α-globin-HA (natural protein)
chain: not shown
notes: A factor Xa site (Xa_(SITE), from pET-16b) lies between the 10xHis tag and α-globin. ~18.7 kDa as printed; also called α-monomer; recombinant α-globin chain; source: E. coli CD43 (DE3), pET-16b; also as bacterial inclusion bodies dissolved in 1 M L-Arg; not shown: 10xHis, N-terminal, kept; HA, C-terminal, kept
binding result: binds
